# Results: patent publication US20170152313A1 (Novartis, published 2017)
# B1: FF5 (antibody, human IgG1, kappa, L234A L235A, V domains shown)
# VH: QVQLVQSGAEVKKPGASVKVSCKASGYTFTDYEVHWVRQAPGQGLEWMGAIHPGSGGAAYVQKFQGRVTMTRDTSISTAYMELSRLRSDDTAVYYCARWLPMDYWGQGTLVTVSS
# VL: DIQMTQSPSSVSASVGDRVTITCRASQGINNWLVWYQQKPGKAPKLLLYAASRLESGVPSRFSGSGSGTDYTLTISSLQPEDIATYYCQQYLITPYTFGQGTKLEIKR
# notes: Humaneered variant of E2E10, tested as full human IgG; Biotinylated for the neutrophil assay; also called LLG787; LLG787 (FF5)
# B2: FF4 (antibody, human IgG1, kappa, L234A L235A, V domains shown)
# VH: QVQLVQSGAEVKKPGASVKVSCKASGYTFTDYEVHWVRQAPGQGLEWMGAIHPGSGGAAYVQKFQGRVTMTRDTSISTAYMELSRLRSDDTAVYYCARWLPMDYWGQGTLVTVSS
# VL: DIQMTQSPSSVSASVGDRVTITCRASQGITNWLAWYQQKPGKAPKLLIYAASILESGVPSRFSGSGSGTDYTLTISSLQPEDIATYYCQQYLITPYTFGQGTKLEIKR
# notes: Humaneered variant of E2E10, tested as full human IgG; the text and claims pair heavy chain 56 with light chain 66; Biotinylated for the neutrophil assay; also called LLG786; LLG786 (FF4)
# B3: FF1 (antibody, human IgG1, kappa, L234A L235A, V domains shown)
# VH: QVQLVQSGAEVKKPGASVKVSCKASGYTFTDYEVHWVRQAPGQGLEWMGAIHPGSGGAAYVQKFQGRVTMTRDTSTSTAYMELSSLRSDDTAVYYCARWLPMDYWGQGTLVTVSS
# VL: DIQMTQSPSSVSASVGDRVTITCRASQGINNWLVWYQQKPGKAPKLLIYAASSLQSGVPSRFSGSGSGADYTLTISSLQPEDFATYYCQQYLITPYTFGQGTKLEIKR
# notes: Humaneered variant of E2E10, tested as full human IgG (captured or detected with anti-human IgG); Biotinylated for the neutrophil assay; also called LLG783; LLG783 (FF1)
# B4: FF6 (antibody, human IgG1, kappa, L234A L235A, V domains shown)
# VH: QVQLVQSGAEVKKPGASVKVSCKASGYTFTDYEVHWVRQAPGQGLEWMGAIHPGSGGAAYVQKFQGRVTMTRDTSISTAYMELSRLRSDDTAVYYCARWLPIDYWGQGTLVTVSS
# VL: DIQMTQSPSSVSASVGDRVTITCRASQGINNWLVWYQQKPGKAPKLLLYAASRLESGVPSRFSGSGSGTDYTLTISSLQPEDIATYYCQQYLITPYTFGQGTKLEIKR
# notes: Humaneered variant of E2E10, tested as full human IgG; Biotinylated for the neutrophil assay; also called LLG788; LLG788 (FF6)
# B5: FF3 (antibody, human IgG1, kappa, L234A L235A, V domains shown)
# VH: QVQLVQSGAEVKKPGASVKVSCKASGYTFTDYEVHWVRQAPGQGLEWMGAIHPGSGGAAYVQKFQGRVTMTRDTSISTAYMELSRLRSDDTAVYYCARWLPMDYWGQGTLVTVSS
# VL: DIQMTQSPSSVSASVGDRVTITCRASQGINNWLVWYQQKPGKAPKLLIYAASSLQSGVPSRFSGSGSGADYTLTISSLQPEDFATYYCQQYLITPYTFGQGTKLEIKR
# notes: Humaneered variant of E2E10, tested as full human IgG; Biotinylated for the neutrophil assay; also called LLG785; LLG785 (FF3)
# What was measured:
# [1] = biological target: T1, Human LOX-1 full-length protein (human, UniProt P78380 1-273); assay: cell-based or functional assay
# [2] = biological target: T2, APP-Avi-soluble cynomolgus monkey LOX-1 (61-273) (cynomolgus monkey, biotinylated at the Avi tag when immobilised in the SET assay); assay: solution equilibrium titration (SET), MSD read-out
# T2 construct: Expressed and purified in the same way as the human protein; also called cynomolgus monkey soluble LOX-1; Cynomolgus Monkey Soluble APP-Avi-LOX-1
# T2 sequence (chain, as listed by the source): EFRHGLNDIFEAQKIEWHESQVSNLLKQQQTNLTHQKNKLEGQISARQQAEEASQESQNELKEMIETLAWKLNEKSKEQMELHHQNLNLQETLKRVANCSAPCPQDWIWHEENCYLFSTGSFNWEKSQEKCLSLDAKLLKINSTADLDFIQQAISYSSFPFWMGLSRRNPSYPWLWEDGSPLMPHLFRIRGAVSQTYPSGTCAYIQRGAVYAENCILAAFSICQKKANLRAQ
# Protocol: (§1) For humanized LOX-1 antibodies FF1, FF3, FF4, FF5, and FF6, the following solution equilibrium titration (SET) assay protocol was used to determine KD values. The assays were performed in a 96-well polypropylene plate (Thermo Scientific, Catalog no. AB-1127) as follows. A constant concentration of LOX-1 antibody (1 pM) was mixed with different concentrations of non-biotinylated human or cynomolgus monkey LOX-1 protein (3-fold serial dilution ranging from 1 nM to 0.017 pM) in SET buffer (PBS, pH 7.4 without CaCl₂ or MgCl₂, Gibco, catalog no. P7949; 0.5% w/v bovine serum albumin, fatty acid free, Calbiochem, catalog no. 26575; and 0.02% v/v Tween-20, Sigma, catalog no. P7949). The final reaction volume was […]. The plate was sealed using an adhesive film (WVR, catalog no. 60941-062) and incubated at 22° C. for 14 hours with constant shaking (300 rpm).
# (§2) During the same period, a 384-well streptavidin-coated MSD plate (Meso Scale Discovery, catalog no. L21SA) was blocked by incubating the plate with 50 μL blocking buffer (PBS, pH 7.4, 5% w/v bovine serum albumuin) per well overnight at 4° C. The blocked MSD plate was then washed 3 times with wash buffer (PBS, pH 7.4 and 0.05% v/v Tween-20) using a plate washer (BioTek). Following washing, biotinylated human or cynomolgus monkey soluble LOX-1 protein (25 pM, 15 μL per well) was immobilized on the surface by incubation at 22° C. for one hour with constant shaking (600 rpm). The plate was then washed 3 times as described earlier. In some experiments, non-biotinylated soluble human LOX-1 protein was used (R&D systems, catalog no. 1798-LX-050) was used; in this case the LOX-1 protein was immobilized by overnight incubation at 1 nM concentration in a standard MSD plate (MSD, catalog no. L21XA). The equilibrium binding reactions (15 μL per well) were then applied to the MSD plate with immobilized LOX-1 and incubated for 30 min. The unbound material was removed by washing the plate, and the captured antibody was detected by adding 15 μL per well of a 1:500 dilution of Sulfa-tagged goat anti-human IgG (Mesa Scale Discovery, catalog no. R3AJ-1). The plate was then incubated for one hour with constant shaking (600 rpm). The plate was washed 3 times, and then […] 1×MSD read buffer T(Meso Scale Discovery, catalog no. R92TC-2) was added and the plate was developed using a Sector Imager 6000 (Mesa Scale Discovery).
# [3] = biological target: Human Soluble His9-LOX-1 from R&D Systems (human, UniProt P78380 61-273); assay: solution equilibrium titration (SET), MSD read-out
# Protocol: as §1, §2
# [4] = biological target: T1, Human LOX-1 full-length protein; assay: flow cytometry, inhibition of dil-OxLDL binding to huLOX-1/HEK293 cells
# Protocol: The huLOX-1/HEK293 cells were resuspended at 1×10⁶ cells/mL and seeded 50 μL per well into a 96-well V-bottom plate (5×10⁴ cells per well). LOX-1 or irrelevant control antibodies in assay medium (DMEM+10% FBS) were then added to the cells. Typical final antibody concentrations ranged from 0.006 μg/mL to 20 μg/mL. The cells were incubated at 37° C. for 1 hour, then washed twice with warm HBSS. Dil-oxLDL (human dil-labeled “High Oxidized” LDL, Kalen Biomedical, catalog number 770262-9; Dil is 1,1′-dioctadecyl-3,3,3′,3′-tetramethylindocarbocyanine perchlorate) in 50 ul assay medium was then added to a final concentration 30 to 100 μg/mL. The cells were then incubated at 37° C. for 2 hours, and then washed twice with FACS buffer (2% FBS in PBS). Cells were then analyzed for intensity of Di-I fluorescence by flow cytometry, as depicted in FIG. 2 and Table 3.
# [5] = biological target: T1, Human LOX-1 full-length protein; assay: flow cytometry, biotinylated antibody on primary human neutrophils, PE-streptavidin
# Protocol: The resulting cell suspension was carefully transferred to a 50 mL conical tube containing 10 mL Ficoll-Paque, layering the cell suspension on top of the Ficoll-Paque, and the tube was then centrifuged at 1400 rpm (400×g) for 30 minutes at room temperature. The top layer was the discarded. To the resulting cell pellet, 10 mL 0.2% ice-cold sodium chloride was added, and the mixture was incubated for exactly 30 seconds to lyse red blood cells; 10 mL of ice-cold 1.6% sodium chloride was added to restore isotonicity. The cell suspension was then centrifuged at 1200 rpm ([…]) for 5 minutes. The supernantant was then discarded, and the red blood cell lysis procedure repeated once more. The resulting cell pellet was resuspended in FACS buffer (2 mM EDTA, 1% BSA, and 0.2% sodium azide in PBS) at a cell density of 2×10⁶ cells/mL.
# The cell suspension containing freshly isolated human neutrophils was transferred (50 ul/well) to wells of a 96-well V-bottom plate (1×10⁵ cells/well) (Costar, catalog number 3894). Blocking buffer (4% normal rabbit serum diluted in FACS buffer (2 mM EDTA, 1% BSA, and 0.2% sodium azide in PBS) (50 ul/well) was added and the plate was incubated on ice for 30 minutes. Biotinylated LOX-1 antibody (10 μl) in FACS buffer was then added to the wells at final concentrations ranging from 1 ng/ml to 5 ug/mL, and the plate was incubated on ice for 30 minutes. The plate was then centrifuged at 1200 rpm (250-300×g) for 3 minutes and supernatant was discarded. The cells were then washed twice with 0.2 mL FACS buffer, and then 0.1 mL of PE-streptavidin (BD Pharmingen catalog number 554061) diluted at 1:250 in FACS buffer was added, and the plate incubated on ice for 30 minutes. The plate was then centrifuged again, supernatant discarded, and the cells washed twice with 0.2 mL FACS buffer. Cells were then resuspended in 0.1 mL of fixing buffer (FACS buffer with 2% paraformaldehyde) and analyzed using a FACS instrument. To determine an EC50 value for neutrophil binding by LOX-1 antibodies, the LOX-1 staining intensity determined by FACS was plotted vs. the concentration of the antibody as shown in FIG. 5 and Table 3.
# [6] = biological target: T2, APP-Avi-soluble cynomolgus monkey LOX-1 …; assay: SPR Biacore T200, antibody captured by anti-human IgG, cynomolgus soluble LOX-1 as analyte, 1:1 model
# Protocol: Surface plasmon resonance measurements quantifying the interaction of humanized LOX-1 antibodies with human or cynomolgus monkey LOX-1 were done with the optical biosensor BIAcore T200 on a CM5 chip. Goat-anti-hlgG (gamma) (Invitrogen H10500) was coated at 3,000 RU on the CM5 chip in acetate buffer, pH 4.0. The running buffer used was PBS, pH 7.4 (filtered, degassed). Test antibodies were loaded into individual flow cells at a concentration of 1 ug/mL at a flow rate of 10 uL/min. The target number of IgG capture was between 20-30 RU, in HBS-EP buffer (0.01M HEPES, pH 7.4, 0.15M NaCl, 3 mM EDTA, 0.05% P20). Human or cynomolgus monkey soluble LOX-1 was diluted to a concentration of 33 nM in HBS-EP buffer, then diluted serially (1:3) down to a concentration of 0.137 nM. This represents six different concentrations of human or cynomolgus monkey LOX-1. The antigen was introduced into individual flow cells at a flow rate of 30 uL/min. Parameters for association time were set at 700 seconds and dissociation time was set at 5,400 seconds. Data were analyzed using buffer blanks, reference blank, and a 1:1 binding model for curve fitting in order to determine association and dissociation rate constants (ka and kd) and equilibrium binding constants (KD) (see results for FF1, FF3, FF4, FF5, and FF6 in Tables 7-8).
Binder,"Reactive oxygen species (ROS) generation in huLOX-1/HEK293 cells (IC50, nM) [1]",Kd [2],Kd [3],IC50 [4],EC50 [5],Kd [6],koff [6],kon [6]
B1,4.8 nM,0.0006 nM,0.0008 nM,4.1 nM,0.08 mg/L,0.035 nM,4.8e-05 s⁻¹,1.4e+06 M⁻¹ s⁻¹
B2,5.3 nM,0.0007 nM,0.0007 nM,5 nM,0.23 mg/L,0.001 nM,2.6e-06 s⁻¹,2.1e+06 M⁻¹ s⁻¹
B3,6 nM,0.0018 nM,0.0031 nM,5.5 nM,0.15 mg/L,0.012 nM,1.3e-05 s⁻¹,1.1e+06 M⁻¹ s⁻¹
B4,7.9 nM,0.0016 nM,0.002 nM,5.9 nM,0.28 mg/L,0.053 nM,5e-05 s⁻¹,950000 M⁻¹ s⁻¹
B5,7.4 nM,0.0034 nM,0.0023 nM,3.3 nM,0.13 mg/L,0.023 nM,1.7e-05 s⁻¹,770000 M⁻¹ s⁻¹
